For experiment [1], the target named is HLA-A*02:06. The experiment in a line: IEDB peptide-MHC binding, purified MHC/competitive/radioactivity; filed as Kd, often an IC50 or EC50 that approximates it; ≥ and ≤ were set here for values at or beyond the usual limits of such assays.
Experiment [2] concerns the target HLA-A*02:02. The experiment is described as above.
The target in experiment [3] is HLA-A*02:03. The description is as above.
The target in experiment [4] is HLA-A*03:01. The experiment in a line: IEDB peptide-MHC binding, purified MHC/direct/fluorescence; filed as Kd, often an IC50 or EC50 that approximates it; ≥ and ≤ were set here for values at or beyond the usual limits of such assays. The settings on record: source organism: Escherichia coli.
The target in experiment [5] is HLA-A*02:01. The experiment is described as above.
The target in experiment [6] is HLA-A*69:01. Described as above.
For experiment [7], the target named is HLA-B*58:01. Described as above.
[8] abbreviates: source organism: Lymphocytic choriomeningitis virus (strain Armstrong).
Where [9] appears, read: source organism: Vaccinia virus WR.
Setting [10] is: source organism: Bacillus anthracis.
[11] abbreviates: source organism: Francisella tularensis subsp. holarctica LVS.
[12] abbreviates: source organism: SARS coronavirus Tor2.
[13] abbreviates: source organism: Vaccinia virus Copenhagen.

As usually defined, the pKd is the negative decadic logarithm of the Kd, by convention in mol/L.

pKd: −log10 of the molar value.

As for LSYSQTMLL, the negative-log Kd (pKd) was 5.43 in experiment [1] (setting [8]), 5.68 in experiment [2] (setting [8]) and 4.95 in experiment [3] (setting [8]).
In the case of CVRLNNPVIL, the values for the pKd in experiment [1] (setting [9]), in experiment [2] (setting [9]) and in experiment [3] (setting [9]) were no more than 4.35, 5.07 and 5.27, respectively.
In the case of DLNRMPTDML, the values for the negative logarithm of the Kd (pKd) in experiment [1] (setting [9]), in experiment [2] (setting [9]) and in experiment [3] (setting [9]) were no more than 4.32, 5.90 and 5.66, respectively.
The sequence GLGSFVARK had a pKd in experiment [4] of 6.68.
As for LLYKQLNFT, the negative-log Kd (pKd) in experiment [5] (setting [10]) was 5.93; in experiment [6] (setting [10]), no more than 4.69.
As for SVKNLILNFL, the values for the pKd in experiment [1] (setting [9]), in experiment [2] (setting [9]) and in experiment [3] (setting [9]) were 6.26, 5.98 and 6.79, respectively.
On the same counts, the results for VMPEKRNVVV are no more than 4.56, 5.45 and 6.52.
As to TITTFIPISA, the pKd in experiment [1] (setting [9]) is 5.32; in experiment [2] (setting [9]), 5.39; in experiment [3] (setting [9]) it was 6.75.
NASQHPQQV had a pKd in experiment [6] (source organism: Salmonella enterica subsp. enterica serovar Typhimurium) of 6.24.
For FTLDADLGI, the pKd in experiment [5] (setting [11]) was 8.09; in experiment [6] (setting [11]) it was 8.66.
RSLKAFFSW showed a pKd in experiment [7] (source organism: Mammarenavirus machupoense) of 7.53.
For the sequence RMPTDMLKL, the negative-log Kd (pKd) was 6.17 in experiment [1] (setting [9]), 6.02 in experiment [2] (setting [9]) and 6.97 in experiment [3] (setting [9]).
For ITRLEVIGLT, the pKd in experiment [1] (setting [9]) was 6.01; in experiment [2] (setting [9]) it was 5.66; in experiment [3] (setting [9]) it was 6.66.
As for FLQISRVNDL, the negative logarithm of the Kd (pKd) in experiment [1] (setting [9]) was 6.23; in experiment [2] (setting [9]), 8.29; in experiment [3] (setting [9]), 7.17.
VLQQVSNGV gave a negative logarithm of the Kd (pKd) in experiment [6] (source organism: Mycobacterium tuberculosis) of no more than 4.70.
Take VIVPDIKLDA: the pKd is 6.05 in experiment [1] (setting [9]), no more than 4.47 in experiment [2] (setting [9]) and no more than 4.67 in experiment [3] (setting [9]).
For the sequence ILASFSAST, the negative logarithm of the Kd (pKd) was 6.34 in experiment [1] (setting [12]), 8.79 in experiment [2] (setting [12]) and 8.28 in experiment [3] (setting [12]).
With RLLKNMKQCT, the values for the pKd in experiment [1] (setting [9]), in experiment [2] (setting [9]) and in experiment [3] (setting [9]) were 4.92, no more than 4.33 and 5.50, respectively.
For HIGHHYIWI the same measures were no more than 4.60, 5.59 and 6.05.
For KLPTWLGAAI the same measures were 6.53, 6.99 and 6.91.
On to LLVTLAILTA, for which the pKd is 7.49 in experiment [1] (setting [12]), 8.36 in experiment [2] (setting [12]) and 7.37 in experiment [3] (setting [12]).
NLFDIPLLT: the pKd is 5.81 in experiment [1] (setting [13]), 6.87 in experiment [2] (setting [13]) and 7.44 in experiment [3] (setting [13]).
With LQQNNSFII, the values for the negative-log Kd (pKd) in experiment [1] (setting [9]), in experiment [2] (setting [9]) and in experiment [3] (setting [9]) were 6.37, 4.93 and 5.29, respectively.
As for AQMGTLLIA, the pKd is 9.35 in experiment [1] (setting [12]), 7.19 in experiment [2] (setting [12]) and 8.81 in experiment [3] (setting [12]).
On to TVQEFIFSAL, for which the results for the pKd in experiment [1] (setting [9]), in experiment [2] (setting [9]) and in experiment [3] (setting [9]) were 7.36, 7.09 and 7.05, respectively.
As to LMDCIIFES, the negative-log Kd (pKd) in experiment [1] (setting [8]) was 6.52; in experiment [2] (setting [8]), 7.52; in experiment [3] (setting [8]), 6.08.
In the case of DTMSIYIAVA, the pKd is 5.83 in experiment [1] (setting [9]), 7.71 in experiment [2] (setting [9]) and 7.63 in experiment [3] (setting [9]).
On the same counts, the results for RVLYDEFVTI are 8.18, 6.82 and 6.75.
Consider VSTAVAALF, for which the pKd in experiment [7] (source organism: Mycobacterium tuberculosis F11) is 7.49.
Turning to VTPEYIKDL, the pKd is 5.75 in experiment [1] (setting [9]), 4.98 in experiment [2] (setting [9]) and no more than 4.11 in experiment [3] (setting [9]).
For SIFVSTMPV, the negative-log Kd (pKd) is 7.09 in experiment [1] (setting [9]), 7.43 in experiment [2] (setting [9]) and 8.18 in experiment [3] (setting [9]).
On to RLVDSIGSW, for which, in experiment [7] (source organism: Influenza A virus (A/swine/IDT/Bakum1832/2000(H1N2))), the negative logarithm of the Kd (pKd) was 6.89.
In the case of DTEFINKFL, the pKd in experiment [1] (setting [9]) was no more than 4.11; in experiment [2] (setting [9]), 5.13; in experiment [3] (setting [9]) it was no more than 4.37.

The values are drawn from the Immune Epitope Database (IEDB).
